Measurements as given in article PMC5741731.

Assays:
[1] = molecular target: human mesothelin-Fc fusion protein (human); test: SPR; Biacore T200; human mesothelin-Fc captured via amine-coupled anti-human IgG (Fc) antibody on a CM5 chip; CA-125-His-Avi and anti-mesothelin Fab injected consecutively and conversely (dual injects, 120 s contact each); PBS with 0.05% Tween 20, dilution with 1 mg/ml BSA; 25 °C
[2] = molecular target: human mesothelin-Fc fusion protein (human)

human mesothelin-Fc fusion protein (human), sequence (Q13421 other isoform, or with tags, fused parts or gaps): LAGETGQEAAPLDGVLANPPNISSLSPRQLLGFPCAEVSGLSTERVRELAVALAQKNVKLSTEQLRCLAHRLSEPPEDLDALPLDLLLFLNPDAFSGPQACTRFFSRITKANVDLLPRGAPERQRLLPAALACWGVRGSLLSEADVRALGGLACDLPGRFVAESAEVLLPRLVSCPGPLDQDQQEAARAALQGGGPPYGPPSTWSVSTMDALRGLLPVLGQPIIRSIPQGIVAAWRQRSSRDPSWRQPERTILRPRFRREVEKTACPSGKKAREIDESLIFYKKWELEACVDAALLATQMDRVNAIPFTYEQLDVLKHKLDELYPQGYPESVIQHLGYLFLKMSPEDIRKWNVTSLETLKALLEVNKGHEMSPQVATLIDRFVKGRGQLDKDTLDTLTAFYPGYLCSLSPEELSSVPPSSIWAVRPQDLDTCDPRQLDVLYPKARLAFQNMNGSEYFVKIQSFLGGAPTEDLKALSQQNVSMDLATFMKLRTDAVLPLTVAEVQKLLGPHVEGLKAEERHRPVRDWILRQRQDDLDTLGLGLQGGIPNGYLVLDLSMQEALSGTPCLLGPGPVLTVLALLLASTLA

Substance: CA-125-HisAvi (recombinant CA-125, extracellular portion) (domain or fragment)
- occupancy of mesothelin at maximal saturation [1]: 70%
- the same heterotypic cell adhesion after pre-incubation of the NCI-H358-MSLN clones with RG7787 Fab: no NCI-H358 cells recovered for clones 4D8, 4H3 and 1G2; clone 2C5 only partly blocked [2]: 10%
